This passage reports Kd, T1/2 and OD results from patent publication US20140099312A1.

As a reminder, the Kd is the equilibrium constant for the complex coming apart.

In experiment [1] the target is Human PCSK9-myc-myc-his (human) (UniProt Q8NBP7). Kind of experiment: SPR, mAb captured on anti-mouse IgG, 25C. (Surface plasmon resonance follows binding to a sensor surface in real time, without labels.)
Experiment [2] addresses Chimeric protein #3 (mPro-mCat-hC-term-mmh) (mouse; human). Kind of experiment: ELISA, coated mAb, 1.2 nM antigen (++ OD>1.0; + OD 0.4-1.0).
For experiment [3], the target named is Human PCSK9-myc-myc-his (human) (UniProt Q8NBP7). Described as above.
Experiment [4] deals with hPCSK9(D374Y)-mmh (human) (UniProt Q8NBP7). Described as above.
The target of experiment [5] is mouse PCSK9-mmh (mouse) (UniProt Q80W65). Nature of the experiment: ELISA, coated mAb, 1.2 nM antigen. In general terms: ELISA stands for enzyme-linked immunosorbent assay.
Experiment [6] has as its target Chimeric protein #2 (hPro-mCat-mC-term-mmh) (human; mouse) (UniProt Q80W65). Kind of experiment: ELISA, coated mAb, 1.2 nM antigen.
The target in experiment [7] is Chimeric protein #1 (mPro-hCat-mC-term-mmh) (mouse; human) (UniProt Q80W65). Kind of experiment: ELISA, coated mAb, 1.2 nM antigen.
Experiment [8] addresses Human PCSK9-myc-myc-his (human) (UniProt Q8NBP7). Nature of the experiment: SPR, mAb captured on anti-mouse IgG, 37C.

B1: H1M498 (antibody, from a related filing, V domains shown)
VH: EVQLVESGGGLVKPGGSLRLSCAASGFTFSSYSMDWVRQAPGKGLEWVSSISSSSSYIYYADSVKGRFTISRDTAKNSLYLQMNSLRDEDTAVYYCAREGSSRLFDYWGQGTLVTVSS
VL: DIQMTQSPSTLSASVGDRVTITCRASQSISSWLAWYQQRPGKAPKLLIYKASSLEGGVPSRFSGSGSGTEFTLTISSLQPEDFATYYCQQYNSYWYTFGQGTKLEIK
Take B1: the values for the Kd in experiment [1] and in experiment [8] were 6.4 nM and 7.5 nM, respectively. The T1/2 in experiment [1] is 30 min; in experiment [8] it was 14 min. Moreover, the OD is 0.4 to 1 od in experiment [2]; over 1 od in experiment [3]; over 1 od in experiment [4]; under 0.4 od in experiment [5]; under 0.4 od in experiment [6]; under 0.4 od in experiment [7].

B2: H1M495 (antibody, from a related filing, V domains shown)
VH: EVQLVESGGGLVQPGRSLRLSCAASGFTFDDYAMHWVRQAPGKGLEWVSGINWNSGSIGYADSVKGRFTISRDNAKHSLYLQMNSLRPEDTALYYCVKEVTTGYYYGMDVWGQGTTVTVSS
VL: DIQLTQSPSFLSASVGDRVTITCWASQGISSYLAWYQKKPGKAPNLLIYDASTLQSGVPSRFSGSGSGTEFTLTLSSLQPEDFATYYCQQLNIYPFTFGPGTKVDIK
Consider B2, for which the Kd in experiment [1] was found to be 0.44 nM; in experiment [8], 7.5 nM. In addition, the values for the T1/2 in experiment [1] and in experiment [8] were 222 min and 19 min, respectively. Further, the OD is over 1 od in experiment [2]; over 1 od in experiment [3]; over 1 od in experiment [4]; under 0.4 od in experiment [5]; under 0.4 od in experiment [6]; under 0.4 od in experiment [7].
